# Measured values taken from PMC12811900 (Nature microbiology, 2025).
# Target: the molecule itself
# Assay: cryo-EM structure
protein,measurement,value
"Sth enolase, untagged, expressed in E. coli (enzyme, Streptococcus thermophilus DGCC7710) MSIITDVYAREVLDSRGNPTLEVEVYTESGAFGRGMVPSGASTGEHEAVELRDGDKARYGGLGTQKAVDNVNNVIAEHIIGFDVRDQQGIDRAMIALDGTPNKGKLGANAILGVSIAVARAAADYLEVPLYSYLGGFNTKVLPTPMMNIINGGSHSDAPIAFQEFMIVPAGAPTFKEALRWGAEIFHALKKILKERGLETAVGDEGGFAPRFNGTEDGVETIIKAIEAAGYVPGKDVFIGLDCASSEFYDAERKVYDYTKFEGEGAAVRTAAEQIDYLEELVNKYPIITIEDGMDENDWDGWKALTERLGGKVQLVGDDFFVTNTAYLEKGIAEHAANSILIKVNQIGTLTETFDAIEMAKEAGYTAVVSHRSGETEDSTIADIAVATNAGQIKTGSLSRTDRIAKYNQLLRIEDQLGEVAEYRGLKSFYNLKK",stoichiometry N,8
